Data reported in patent US20230134571A1 (INTERNATIONAL AIDS VACCINE INITIATIVE, published 2023).
Changes are numbered by the printed parent chain.

B1: ePGDM5 (antibody, V domains shown)
VH: QAQLVQSGPEVRKPGTSVKVSCKNPGNTLTTYDLHWVRQVPGQGLQWMGWISHEGDKKVIVERFKAKVTIDWDRSTNTAYLQLSGLTSEDTAVYYCAKGSKHRLRDYALYDEDGALNWAVDVDYLANLEFWGQGTAVTVSS
VL: DFVLTQSPLSLSVTPGESASISCKSDHSLQHGDRNNYLAWYVQKPGRSPQLLIDLASERASGVPDRFSGSGSRKDFTLKIDRVEAEDVGTYYCMQGRESPWTFGQGTKVDIK
B2: PGDM1400 (antibody, V domains shown)
VH: B1 VH with A2V, Q3H, V5T, N24A, T30K, Q39S, E89G, E112D, A126S
VL: B1 VL with L9H, D26S, Q30I, D54Y, E58S, R73D, D81S, A85T
B3: ePGDM13 (antibody, V domains shown)
VH: B1 VH
VL: B1 VL with F2I, D26S, I53L, R73E, D81S, A85T

What follows are binders tested against HIV Env, isolate T278-50 (HIV) (assay: cell-based or functional assay).

Binder	IC80 (µg/ml) with constrains
B1	4.23 µg/mL
B2	21.7 µg/mL
B3	6.4 µg/mL

Each binder was assayed against HIV Env, isolate Du422.1 (HIV) (assay: cell-based or functional assay).

Binder	IC80 (µg/ml) with constrains
B1	34.6 µg/mL
B2	> 100 µg/mL
B3	> 100 µg/mL

What follows are binders tested against HIV Env, isolate REJO4541.67 (HIV) (assay: cell-based or functional assay).

Binder	IC80 (µg/ml) with constrains
B1	0.005 µg/mL
B2	0.017 µg/mL
B3	0.008 µg/mL

These binders were tested against HIV Env, isolate WEAU_d15_410_5017 (HIV) (assay: cell-based or functional assay).

Binder	IC80 (µg/ml) with constrains
B1	0.003 µg/mL
B2	0.3 µg/mL
B3	0.012 µg/mL

Each binder was assayed against HIV Env, isolate 62357_14_D3_4589 (HIV) (assay: cell-based or functional assay).

Binder	IC80 (µg/ml) with constrains
B1	39.9 µg/mL
B2	> 100 µg/mL
B3	69.5 µg/mL

What follows are binders tested against HIV Env, isolate CAP45.2.00.G3 (HIV) (assay: cell-based or functional assay).

Binder	IC80 (µg/ml) with constrains
B1	0.004 µg/mL
B2	0.005 µg/mL
B3	0.007 µg/mL

These binders were tested against HIV Env, isolate 6240_08_TA5_4622 (HIV) (assay: cell-based or functional assay).

Binder	IC80 (µg/ml) with constrains
B1	8.09 µg/mL
B2	> 100 µg/mL
B3	12.6 µg/mL

What follows are binders tested against HIV Env, isolate CNE53 (HIV) (assay: cell-based or functional assay).

Binder	IC80 (µg/ml) with constrains
B1	0.081 µg/mL
B2	0.105 µg/mL
B3	0.059 µg/mL

What follows are binders tested against HIV Env, isolate CNE52 (HIV) (assay: cell-based or functional assay).

Binder	IC80 (µg/ml) with constrains
B1	24.6 µg/mL
B2	> 100 µg/mL
B3	11.3 µg/mL

These binders were tested against HIV Env, isolate ZM197M.PB7 (HIV) (assay: cell-based or functional assay).

Binder	IC80 (µg/ml) with constrains
B1	0.141 µg/mL
B2	0.282 µg/mL
B3	0.24 µg/mL

These binders were tested against HIV Env, isolate CNE21 (HIV) (assay: cell-based or functional assay).

Binder	IC80 (µg/ml) with constrains
B1	0.007 µg/mL
B2	0.011 µg/mL
B3	0.006 µg/mL

The binders below were run against HIV Env, isolate X1632_S2_B10 (HIV) (assay: cell-based or functional assay).

Binder	IC80 (µg/ml) with constrains
B1	0.012 µg/mL
B2	0.135 µg/mL
B3	0.013 µg/mL

The binders below were run against HIV Env, isolate BF1266.431a (HIV) (assay: cell-based or functional assay).

Binder	IC80 (µg/ml) with constrains
B1	0.014 µg/mL
B2	0.024 µg/mL
B3	0.016 µg/mL

Each binder was assayed against HIV Env, isolate P0402_C2_11 (HIV) (assay: cell-based or functional assay).

Binder	IC80 (µg/ml) with constrains
B1	0.015 µg/mL
B2	0.027 µg/mL
B3	0.006 µg/mL
